B1: Zinc finger homeobox protein 3, residues 2643 to 2698; numbered along this chain, Q15911 (parent)
chain: RLRTTITPEQLEILYQKYLLDSNPTRKMLDHIAHEVGLKKRVVQVWFQNTRARERK

In the Human Domainome abundance scans (Beltran et al. 2025) one finds abundance fitness data, which are given here for 47 variants.

± gives the uncertainty stated by the source.

In the data set the parent is B1. Nature of the data set: abundance fitness (aPCA) (normalised: wild type 0, dead -1); higher = more abundant; growth selection in yeast, the domain comes from the species named. To be noted: Homo sapiens.
Consider RLRTTITEEQLEILYQKYLLDSNPTRKMLDHIAHEVGLKKRVVQVWFQNTRARERK, for which the abundance fitness is -0.259 ± 0.14.

For the variant RLRTTITTEQLEILYQKYLLDSNPTRKMLDHIAHEVGLKKRVVQVWFQNTRARERK, the abundance fitness was -0.116 ± 0.16.

As to RLRTTITAEQLEILYQKYLLDSNPTRKMLDHIAHEVGLKKRVVQVWFQNTRARERK, the abundance fitness came to 0.388 ± 0.095.

Consider RLRTTITVEQLEILYQKYLLDSNPTRKMLDHIAHEVGLKKRVVQVWFQNTRARERK, for which the abundance fitness came out at 0.544 ± 0.094.

With RLRTTITCEQLEILYQKYLLDSNPTRKMLDHIAHEVGLKKRVVQVWFQNTRARERK, the abundance fitness worked out at 0.475 ± 0.15.

For the variant RLRTTITLEQLEILYQKYLLDSNPTRKMLDHIAHEVGLKKRVVQVWFQNTRARERK, the abundance fitness stood at 0.991 ± 0.1.

Consider RLRTTITREQLEILYQKYLLDSNPTRKMLDHIAHEVGLKKRVVQVWFQNTRARERK, for which the abundance fitness was determined as 0.196 ± 0.089.

Regarding RLRTTITNEQLEILYQKYLLDSNPTRKMLDHIAHEVGLKKRVVQVWFQNTRARERK, the abundance fitness is -0.06 ± 0.3.

As to RLRTTITYEQLEILYQKYLLDSNPTRKMLDHIAHEVGLKKRVVQVWFQNTRARERK, the abundance fitness stood at 0.116 ± 0.14.

Take RLRTTITDEQLEILYQKYLLDSNPTRKMLDHIAHEVGLKKRVVQVWFQNTRARERK: the abundance fitness is -0.084 ± 0.14.

As to RLRTTITFEQLEILYQKYLLDSNPTRKMLDHIAHEVGLKKRVVQVWFQNTRARERK, the abundance fitness was found to be 0.584 ± 0.2.

As for RLRTTITSEQLEILYQKYLLDSNPTRKMLDHIAHEVGLKKRVVQVWFQNTRARERK, the abundance fitness is -0.09 ± 0.1.

RLRTTITWEQLEILYQKYLLDSNPTRKMLDHIAHEVGLKKRVVQVWFQNTRARERK: the abundance fitness is 0.193 ± 0.12.

For the variant RLRTTITGEQLEILYQKYLLDSNPTRKMLDHIAHEVGLKKRVVQVWFQNTRARERK, the abundance fitness is 0.193 ± 0.079.

For the variant RLRTTITKEQLEILYQKYLLDSNPTRKMLDHIAHEVGLKKRVVQVWFQNTRARERK, the abundance fitness is -0.352 ± 0.23.

Take RLRTTITIEQLEILYQKYLLDSNPTRKMLDHIAHEVGLKKRVVQVWFQNTRARERK: the abundance fitness came out at 0.993 ± 0.19.

As to RLRTTITMEQLEILYQKYLLDSNPTRKMLDHIAHEVGLKKRVVQVWFQNTRARERK, the abundance fitness came out at 0.57 ± 0.15.

Regarding RLRTTITQEQLEILYQKYLLDSNPTRKMLDHIAHEVGLKKRVVQVWFQNTRARERK, the abundance fitness is -0.401 ± 0.21.

Regarding RLKTTITPEQLEILYQKYLLDSNPTRKMLDHIAHEVGLKKRVVQVWFQNTRARERK, the abundance fitness turned out to be 0.209 ± 0.11.

Take RLSTTITPEQLEILYQKYLLDSNPTRKMLDHIAHEVGLKKRVVQVWFQNTRARERK: the abundance fitness was found to be 0.43 ± 0.094.

For RLHTTITPEQLEILYQKYLLDSNPTRKMLDHIAHEVGLKKRVVQVWFQNTRARERK, the abundance fitness came to 0.199 ± 0.15.

As for RLPTTITPEQLEILYQKYLLDSNPTRKMLDHIAHEVGLKKRVVQVWFQNTRARERK, the abundance fitness was -0.081 ± 0.15.

For the variant RLNTTITPEQLEILYQKYLLDSNPTRKMLDHIAHEVGLKKRVVQVWFQNTRARERK, the abundance fitness came to 0.173 ± 0.17.

With RLQTTITPEQLEILYQKYLLDSNPTRKMLDHIAHEVGLKKRVVQVWFQNTRARERK, the abundance fitness worked out at 0.353 ± 0.13.

In the case of RLWTTITPEQLEILYQKYLLDSNPTRKMLDHIAHEVGLKKRVVQVWFQNTRARERK, the abundance fitness came out at 0.241 ± 0.1.

With RLMTTITPEQLEILYQKYLLDSNPTRKMLDHIAHEVGLKKRVVQVWFQNTRARERK, the abundance fitness was 0.317 ± 0.12.

For the variant RLYTTITPEQLEILYQKYLLDSNPTRKMLDHIAHEVGLKKRVVQVWFQNTRARERK, the abundance fitness is 0.006 ± 0.17.

With RLTTTITPEQLEILYQKYLLDSNPTRKMLDHIAHEVGLKKRVVQVWFQNTRARERK, the abundance fitness worked out at 0.435 ± 0.12.

RLITTITPEQLEILYQKYLLDSNPTRKMLDHIAHEVGLKKRVVQVWFQNTRARERK: the abundance fitness was 0.19 ± 0.14.

Consider RLLTTITPEQLEILYQKYLLDSNPTRKMLDHIAHEVGLKKRVVQVWFQNTRARERK, for which the abundance fitness came out at 0.186 ± 0.095.

For the variant RLRSTITPEQLEILYQKYLLDSNPTRKMLDHIAHEVGLKKRVVQVWFQNTRARERK, the abundance fitness is -0.144 ± 0.13.

Consider RLRYTITPEQLEILYQKYLLDSNPTRKMLDHIAHEVGLKKRVVQVWFQNTRARERK, for which the abundance fitness was -0.254 ± 0.18.

On to RLRETITPEQLEILYQKYLLDSNPTRKMLDHIAHEVGLKKRVVQVWFQNTRARERK, for which the abundance fitness was 0.439 ± 0.14.

As to RLRKTITPEQLEILYQKYLLDSNPTRKMLDHIAHEVGLKKRVVQVWFQNTRARERK, the abundance fitness is -0.318 ± 0.16.

For the variant RLRGTITPEQLEILYQKYLLDSNPTRKMLDHIAHEVGLKKRVVQVWFQNTRARERK, the abundance fitness was -0.002 ± 0.08.

As to RLRHTITPEQLEILYQKYLLDSNPTRKMLDHIAHEVGLKKRVVQVWFQNTRARERK, the abundance fitness is -0.337 ± 0.17.

In the case of RLRITITPEQLEILYQKYLLDSNPTRKMLDHIAHEVGLKKRVVQVWFQNTRARERK, the abundance fitness came to 0.048 ± 0.21.

Turning to RLRDTITPEQLEILYQKYLLDSNPTRKMLDHIAHEVGLKKRVVQVWFQNTRARERK, the abundance fitness was determined as 0.154 ± 0.19.

For RLRCTITPEQLEILYQKYLLDSNPTRKMLDHIAHEVGLKKRVVQVWFQNTRARERK, the abundance fitness is -0.56 ± 0.19.

Consider RLRMTITPEQLEILYQKYLLDSNPTRKMLDHIAHEVGLKKRVVQVWFQNTRARERK, for which the abundance fitness came out at 0.068 ± 0.14.

For the variant RLRPTITPEQLEILYQKYLLDSNPTRKMLDHIAHEVGLKKRVVQVWFQNTRARERK, the abundance fitness is 0.149 ± 0.13.

Turning to RLRLTITPEQLEILYQKYLLDSNPTRKMLDHIAHEVGLKKRVVQVWFQNTRARERK, the abundance fitness was -0.335 ± 0.11.

On to RLRWTITPEQLEILYQKYLLDSNPTRKMLDHIAHEVGLKKRVVQVWFQNTRARERK, for which the abundance fitness was -0.423 ± 0.11.

Take RLRATITPEQLEILYQKYLLDSNPTRKMLDHIAHEVGLKKRVVQVWFQNTRARERK: the abundance fitness was -0.193 ± 0.1.

For the variant RLRVTITPEQLEILYQKYLLDSNPTRKMLDHIAHEVGLKKRVVQVWFQNTRARERK, the abundance fitness was -0.106 ± 0.092.

In the case of RLRRTITPEQLEILYQKYLLDSNPTRKMLDHIAHEVGLKKRVVQVWFQNTRARERK, the abundance fitness was -0.576 ± 0.095.

For RLRFTITPEQLEILYQKYLLDSNPTRKMLDHIAHEVGLKKRVVQVWFQNTRARERK, the abundance fitness is -0.378 ± 0.24.
